Data reported in paper PMC9482650, “Quantitative fragmentomics allow affinity mapping of interactomes” (Nature Communications, 2022).
Each block holds one binder with its values, some of them ahead of it.

Experiments:
Assay in all cases: holdup assay
Parameters in all cases: key: below the threshold = too weak to quantify, mostly under pKd 3.1 to 4
Settings in all cases: plain residues with an end cap or a label only (N-terminal biotin on a linker: ado-ado)
[1] = target: T1, DLG3_3, Q92796
T1 sequence (Q92796 374-475, limits assumed, looked up): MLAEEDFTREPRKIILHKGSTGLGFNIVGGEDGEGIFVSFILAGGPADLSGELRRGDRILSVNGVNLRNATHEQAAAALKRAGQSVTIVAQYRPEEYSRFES

[2] = target: T2, PARD3B_1, Q8TEW8
T2 sequence (Q8TEW8 196-299, limits assumed, looked up): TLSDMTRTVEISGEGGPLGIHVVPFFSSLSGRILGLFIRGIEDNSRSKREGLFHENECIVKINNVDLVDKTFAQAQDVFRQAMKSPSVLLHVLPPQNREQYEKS

[3] = target: PTPN3, P26045
PTPN3, P26045, sequence (P26045 505-587): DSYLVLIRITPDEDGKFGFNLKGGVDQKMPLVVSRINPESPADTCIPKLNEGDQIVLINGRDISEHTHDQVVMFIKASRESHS

[4] = target: FRMPD2_1, Q68DX3
FRMPD2_1, Q68DX3, sequence (Q68DX3 770-861): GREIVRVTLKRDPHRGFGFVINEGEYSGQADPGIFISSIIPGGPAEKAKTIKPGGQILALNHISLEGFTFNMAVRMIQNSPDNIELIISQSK

[5] = target: MAGI2_2, Q86UL8
MAGI2_2, Q86UL8, sequence (Q86UL8 410-522): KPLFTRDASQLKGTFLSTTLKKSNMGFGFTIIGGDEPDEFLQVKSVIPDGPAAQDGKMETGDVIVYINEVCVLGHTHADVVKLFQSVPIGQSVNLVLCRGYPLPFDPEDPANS

[6] = target: MAGI2_6, Q86UL8
MAGI2_6, Q86UL8, sequence (Q86UL8 1141-1229): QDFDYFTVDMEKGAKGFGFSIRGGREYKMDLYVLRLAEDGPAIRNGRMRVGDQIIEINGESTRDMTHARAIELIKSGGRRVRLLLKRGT

[7] = target: SCRIB_3, Q14160
SCRIB_3, Q14160, sequence (Q14160 999-1103): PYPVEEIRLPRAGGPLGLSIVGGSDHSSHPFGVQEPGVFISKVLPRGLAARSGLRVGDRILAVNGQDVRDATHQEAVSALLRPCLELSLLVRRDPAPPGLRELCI

[8] = target: LNX1_3, Q8TBB1
LNX1_3, Q8TBB1, sequence (Q8TBB1 500-596): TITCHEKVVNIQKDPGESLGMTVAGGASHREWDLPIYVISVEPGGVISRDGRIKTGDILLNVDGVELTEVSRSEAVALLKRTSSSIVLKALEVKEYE

[9] = target: T3, LIN7C, Q9NUP9
T3 sequence (Q9NUP9 88-185, limits assumed, looked up): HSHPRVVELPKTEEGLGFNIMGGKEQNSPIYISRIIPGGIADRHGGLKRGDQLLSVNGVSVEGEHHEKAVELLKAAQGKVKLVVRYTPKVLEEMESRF

[10] = target: T4, SHANK1, Q9Y566
T4 sequence (Q9Y566 658-767, limits assumed, looked up): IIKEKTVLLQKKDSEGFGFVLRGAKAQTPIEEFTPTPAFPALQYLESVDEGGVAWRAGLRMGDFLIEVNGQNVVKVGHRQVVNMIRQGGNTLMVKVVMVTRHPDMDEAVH

[11] = target: T5, GRIP1_4, Q9Y3R0
T5 sequence (Q9Y3R0 467-571, limits assumed, looked up): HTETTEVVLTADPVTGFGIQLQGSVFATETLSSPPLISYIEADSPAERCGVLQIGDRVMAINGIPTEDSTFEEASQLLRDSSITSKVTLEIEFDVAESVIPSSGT

[12] = target: T6, RHPN1, Q8TCX5
T6 sequence (Q8TCX5 508-602, limits assumed, looked up): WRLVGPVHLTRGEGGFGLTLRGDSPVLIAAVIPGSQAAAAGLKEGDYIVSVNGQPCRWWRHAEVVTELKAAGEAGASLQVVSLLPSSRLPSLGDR

[13] = target: Inadl_1, Q8NI35
Inadl_1, Q8NI35, sequence (Q8NI35 113-229): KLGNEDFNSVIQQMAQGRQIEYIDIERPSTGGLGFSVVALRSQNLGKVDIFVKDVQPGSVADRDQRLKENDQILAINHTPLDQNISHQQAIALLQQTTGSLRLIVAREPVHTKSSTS

[14] = target: T7, MPDZ_12, O75970
T7 sequence (O75970 1857-1958, limits assumed, looked up): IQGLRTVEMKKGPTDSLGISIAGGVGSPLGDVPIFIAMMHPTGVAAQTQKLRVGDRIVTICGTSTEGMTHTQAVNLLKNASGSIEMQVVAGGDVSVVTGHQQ

[15] = target: NHERF2_2, Q15599
NHERF2_2, Q15599, sequence (Q15599 142-238): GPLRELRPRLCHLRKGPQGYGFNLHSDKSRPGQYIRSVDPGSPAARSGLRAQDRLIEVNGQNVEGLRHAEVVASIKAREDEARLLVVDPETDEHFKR

[16] = target: FRMPD3, Q5JV73
FRMPD3, Q5JV73, sequence (Q5JV73 12-100): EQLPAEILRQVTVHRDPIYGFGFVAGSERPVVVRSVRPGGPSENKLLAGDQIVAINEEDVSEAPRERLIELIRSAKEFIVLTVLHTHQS

[17] = target: Inadl_6, Q8NI35
Inadl_6, Q8NI35, sequence (Q8NI35 1058-1167): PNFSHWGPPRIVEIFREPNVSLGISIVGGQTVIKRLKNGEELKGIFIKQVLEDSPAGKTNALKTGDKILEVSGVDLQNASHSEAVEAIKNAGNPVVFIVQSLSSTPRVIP

[18] = target: LDB3, O75112
LDB3, O75112, sequence (O75112 1-94): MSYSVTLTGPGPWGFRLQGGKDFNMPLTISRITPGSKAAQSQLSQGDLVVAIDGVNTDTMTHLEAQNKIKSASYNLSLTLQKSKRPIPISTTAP

[19] = target: NHERF4_1, Q86UT5-2
NHERF4_1, Q86UT5-2, sequence (Q86UT5 other isoform, or with tags, fused parts or gaps): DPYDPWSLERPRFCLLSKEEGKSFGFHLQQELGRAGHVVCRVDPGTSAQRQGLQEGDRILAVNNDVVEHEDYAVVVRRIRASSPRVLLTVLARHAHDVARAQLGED

[20] = target: NHERF4_4, Q86UT5
NHERF4_4, Q86UT5, sequence (Q86UT5 464-550): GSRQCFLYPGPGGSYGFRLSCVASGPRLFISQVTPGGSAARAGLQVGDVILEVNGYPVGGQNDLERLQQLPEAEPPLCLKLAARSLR

[21] = target: SNX27, Q96L92
[22] = target: Inadl_2, Q8NI35
Inadl_2, Q8NI35, sequence (Q8NI35 238-335): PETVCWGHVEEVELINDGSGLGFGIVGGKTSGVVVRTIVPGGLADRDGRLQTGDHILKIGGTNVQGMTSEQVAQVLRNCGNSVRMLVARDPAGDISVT

[23] = target: GRID2IP_2, A4D2P6
GRID2IP_2, A4D2P6, sequence (A4D2P6 272-370): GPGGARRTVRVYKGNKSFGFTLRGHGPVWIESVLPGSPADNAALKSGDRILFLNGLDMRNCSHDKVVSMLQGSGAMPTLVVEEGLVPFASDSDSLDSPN

[24] = target: ARHGEF12, Q9NZN5-2
ARHGEF12, Q9NZN5-2, sequence (Q9NZN5 other isoform, or with tags, fused parts or gaps): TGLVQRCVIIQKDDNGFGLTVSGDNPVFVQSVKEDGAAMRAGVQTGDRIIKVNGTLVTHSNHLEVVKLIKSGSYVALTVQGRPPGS

[25] = target: GRIP2_4, Q9C0E4
GRIP2_4, Q9C0E4, sequence (Q9C0E4 446-548): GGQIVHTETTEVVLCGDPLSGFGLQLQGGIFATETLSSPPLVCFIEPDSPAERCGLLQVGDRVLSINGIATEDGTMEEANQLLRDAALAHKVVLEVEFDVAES

[26] = target: DLG1_2, Q12959
DLG1_2, Q12959, sequence (Q12959 314-412): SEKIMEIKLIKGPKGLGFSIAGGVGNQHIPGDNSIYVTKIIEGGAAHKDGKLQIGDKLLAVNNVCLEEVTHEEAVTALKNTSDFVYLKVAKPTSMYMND

[27] = target: GORASP1, Q9BQQ3
GORASP1, Q9BQQ3, sequence (Q9BQQ3 1-208): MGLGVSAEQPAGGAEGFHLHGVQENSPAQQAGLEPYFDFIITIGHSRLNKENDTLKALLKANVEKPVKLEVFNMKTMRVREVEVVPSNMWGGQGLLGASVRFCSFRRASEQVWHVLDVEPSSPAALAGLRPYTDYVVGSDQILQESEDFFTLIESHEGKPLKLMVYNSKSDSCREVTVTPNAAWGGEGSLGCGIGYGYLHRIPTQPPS

[28] = target: T8, SIPA1L2, Q9P2F8
T8 sequence (Q9P2F8 945-1036, limits assumed, looked up): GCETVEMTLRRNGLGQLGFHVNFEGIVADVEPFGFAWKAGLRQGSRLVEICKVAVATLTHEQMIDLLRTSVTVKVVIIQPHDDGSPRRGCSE

[29] = target: HTRA2, O43464
HTRA2, O43464, sequence (O43464 355-458): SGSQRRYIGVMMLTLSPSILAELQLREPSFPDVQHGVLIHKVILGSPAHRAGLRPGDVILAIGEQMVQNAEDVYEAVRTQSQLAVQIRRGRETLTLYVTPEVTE

pKd [1]: below the threshold | pKd [2]: below the threshold | pKd [3]: 3.97 | pKd [4]: below the threshold | pKd [5]: below the threshold | pKd [6]: below the threshold | pKd [7]: below the threshold | pKd [8]: below the threshold | pKd [9]: below the threshold | pKd [10]: below the threshold | pKd [11]: below the threshold | pKd [12]: below the threshold | pKd [13]: below the threshold | pKd [14]: below the threshold | pKd [15]: below the threshold | pKd [16]: below the threshold | pKd [17]: below the threshold | pKd [18]: below the threshold | pKd [19]: below the threshold | pKd [20]: below the threshold | pKd [21]: below the threshold | pKd [22]: below the threshold | pKd [23]: below the threshold | pKd [24]: below the threshold | pKd [25]: below the threshold | pKd [26]: below the threshold | pKd [27]: below the threshold | pKd [28]: below the threshold | pKd [29]: below the threshold
B1: CTNNA1, P35221 (peptide)
chain: LSEFKAMDSI

pKd [1]: below the threshold | pKd [2]: below the threshold | pKd [3]: 3.99 | pKd [4]: 4.24 | pKd [5]: below the threshold | pKd [6]: 3.85 | pKd [7]: below the threshold | pKd [8]: below the threshold | pKd [9]: below the threshold | pKd [10]: below the threshold | pKd [11]: below the threshold | pKd [12]: below the threshold | pKd [13]: below the threshold | pKd [14]: 3.57 | pKd [15]: below the threshold | pKd [16]: below the threshold | pKd [17]: below the threshold | pKd [18]: below the threshold | pKd [19]: 4.06 | pKd [20]: below the threshold | pKd [21]: 4.38 | pKd [22]: below the threshold | pKd [23]: 3.89 | pKd [24]: below the threshold | pKd [25]: below the threshold | pKd [26]: 4.18 | pKd [27]: 5 | pKd [28]: below the threshold | pKd [29]: 3.94
B2: GJD4, Q96KN9 (peptide)
chain: HLRARKSEWV

pKd [1]: below the threshold | pKd [2]: 4.42 | pKd [3]: 4.13 | pKd [4]: 4.45 | pKd [5]: 3.65 | pKd [6]: below the threshold | pKd [7]: below the threshold | pKd [8]: 3.8 | pKd [9]: below the threshold | pKd [10]: below the threshold | pKd [11]: below the threshold | pKd [12]: below the threshold | pKd [13]: 3.67 | pKd [14]: 3.52 | pKd [15]: below the threshold | pKd [16]: 3.64 | pKd [17]: below the threshold | pKd [18]: below the threshold | pKd [19]: 3.67 | pKd [20]: 3.62 | pKd [21]: below the threshold | pKd [22]: 3.65 | pKd [23]: below the threshold | pKd [24]: 3.5 | pKd [25]: below the threshold | pKd [26]: 3.84 | pKd [27]: 4.15 | pKd [28]: below the threshold | pKd [29]: 4.68
B3: TRAF7, Q6Q0C0 (peptide)
chain: VDSTVKVWTC

Further lines, the binder ahead of its results:

B4: ABCA7, Q8IZY2 (peptide)
chain: DDPSTAETVL
pKd [1]: below the threshold | pKd [2]: 4.65 | pKd [3]: 4.83 | pKd [4]: below the threshold | pKd [5]: below the threshold | pKd [6]: 3.83 | pKd [7]: 4.73 | pKd [8]: below the threshold | pKd [9]: below the threshold | pKd [10]: 4.74 | pKd [11]: below the threshold | pKd [12]: 4.92 | pKd [13]: below the threshold | pKd [14]: below the threshold | pKd [15]: 4.42 | pKd [16]: below the threshold | pKd [17]: 3.98 | pKd [18]: below the threshold | pKd [19]: 3.86 | pKd [20]: below the threshold | pKd [21]: 5.6 | pKd [22]: below the threshold | pKd [23]: below the threshold | pKd [24]: 4.63 | pKd [25]: below the threshold | pKd [26]: 3.78 | pKd [27]: below the threshold | pKd [28]: below the threshold | pKd [29]: below the threshold

B5: BPIFA2, Q96DR5 (peptide)
chain: QHKTQLQTLI
pKd [1]: below the threshold | pKd [2]: 4.22 | pKd [3]: 3.99 | pKd [4]: below the threshold | pKd [5]: 4.43 | pKd [6]: below the threshold | pKd [7]: 4.2 | pKd [8]: below the threshold | pKd [9]: below the threshold | pKd [10]: 4.02 | pKd [11]: below the threshold | pKd [12]: 4.26 | pKd [13]: below the threshold | pKd [14]: below the threshold | pKd [15]: 3.58 | pKd [16]: below the threshold | pKd [17]: 3.56 | pKd [18]: below the threshold | pKd [19]: 3.85 | pKd [20]: below the threshold | pKd [21]: 3.83 | pKd [22]: below the threshold | pKd [23]: 3.93 | pKd [24]: 4.33 | pKd [25]: below the threshold | pKd [26]: 4.88 | pKd [27]: 3.73 | pKd [28]: below the threshold | pKd [29]: below the threshold
